Measured values as given in patent publication US20050170468A1 (published 2005).

How the values were obtained:
Experiment in all cases: radiolabeled ligand binding assay on stably transfected BHK cells
[1] = molecular target: T1, IL-20RA/IL-20RB heterodimeric receptor (on cells) (human, UniProt Q9UHF4 30-553; Q6UXL0 30-311)
T1 construct: Both subunits are on the same cell (COS, BHK or BaF3 transfectants, or HaCaT endogenously); also called IL-20 receptor; ZcytoR7/pDIRS1
T1 sequence 1: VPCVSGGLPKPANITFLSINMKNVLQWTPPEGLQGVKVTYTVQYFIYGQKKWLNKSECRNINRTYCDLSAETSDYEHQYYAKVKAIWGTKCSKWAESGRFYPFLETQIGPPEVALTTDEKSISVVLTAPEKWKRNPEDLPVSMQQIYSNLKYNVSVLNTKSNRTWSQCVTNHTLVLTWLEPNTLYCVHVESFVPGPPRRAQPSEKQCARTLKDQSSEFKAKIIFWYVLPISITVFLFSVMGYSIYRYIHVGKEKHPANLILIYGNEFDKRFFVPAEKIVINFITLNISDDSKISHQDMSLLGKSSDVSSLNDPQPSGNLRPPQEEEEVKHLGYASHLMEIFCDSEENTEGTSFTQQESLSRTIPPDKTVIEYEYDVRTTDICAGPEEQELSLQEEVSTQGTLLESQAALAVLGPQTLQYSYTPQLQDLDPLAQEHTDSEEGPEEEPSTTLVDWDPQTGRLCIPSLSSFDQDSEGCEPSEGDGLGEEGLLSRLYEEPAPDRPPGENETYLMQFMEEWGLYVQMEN
T1 sequence 2: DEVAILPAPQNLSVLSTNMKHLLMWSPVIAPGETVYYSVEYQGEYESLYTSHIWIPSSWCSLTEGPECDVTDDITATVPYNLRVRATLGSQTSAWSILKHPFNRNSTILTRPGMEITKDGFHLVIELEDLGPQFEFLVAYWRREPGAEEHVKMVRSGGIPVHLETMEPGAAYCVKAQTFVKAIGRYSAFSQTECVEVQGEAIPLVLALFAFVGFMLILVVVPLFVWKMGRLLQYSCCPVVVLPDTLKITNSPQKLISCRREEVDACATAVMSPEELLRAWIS
Experimental: (§1) The specificity and affinity of IL-20 for its receptor was determined using BHK cells stably transfected with IL-20RA, IL-20RB or both receptor subunits. […] Binding of ¹²⁵I-labeled IL-20 was eliminated in the presence of 100-fold excess of unlabeled IL-20 but not with 100-fold excess of the unrelated cytokine, IL-21.

[2] = molecular target: T2, IL-20RA (full-length, on cells, without transfected IL-20RB) (human, UniProt Q9UHF4 30-553)
T2 construct: Also used as the target of the anti-IL-20RA antibody on human lung tissue, the positive control 'known with IL-20RA expression'; also called ZcytoR7; BaF3/KZ134/IL-20RA only cells
T2 sequence: T1 sequence 1
Experimental: as §1

[3] = molecular target: T3, IL-20RB (full-length, on cells, without transfected IL-20RA) (human, UniProt Q6UXL0 30-311)
T3 construct: also called DIRS1; pDIRS1
T3 sequence: T1 sequence 2
Experimental: as §1

B1: IL-20 (ligand)
chain: LKTLNLGSCVIATNLQEIRNGFSDIRGSVQAKDGNIDIRILRRTESLQDTKPANRCCLLRHLLRLYLDRVFKNYQTPDHYTLRKISSLANSFLTIKKDLRLCHAHMTCHCGEEAMKKYSQILSHFEKLEPQAAVVKALGELDILLQWMEETE
modifications: biotin label in Example 6; 125I label in Example 10
notes: also called Zcyto10; biotinylated IL-20 protein
[1]
  Kd: ~1.5 nM
[2]
  binding result: no binding
[3]
  binding result: no binding
